B1: HA-dCENP-C(1264-1411) [Drosophila melanogaster] / CAL1-GFP-LacI [Drosophila melanogaster] (parent)
chain 1: GPVVFSTPLRDEQEEASTKLMQWLRGVGDAPPSASMSDENASVSSANELIFCQVDGIDYAFYNTKEKAMLGYMRFKPYQKRSMKQAKVHPLKLLVQFGEFNVETLAVGEEKEVHSVLRVGDMIEIDRGTRYSIQNAIDKVSVLMCIRS
chain 2: MANAVVDEETLEAMVYERSKAWSSKMADFASLEDGMEIDVAEFDNLFHGEDEDPDLDDVAKEAVEDNVPDEAKLEMGHINATSVTELTLILCANEDNEAKAEIEEILNQTVPVVEEHKRKWREAGLDRILDTFDEKQIEHHVGRWMRRHNSVYLEASPPKYLPPHHNSISDESDESMHSIDTARYIQQSRRRNAHMTNKNMTTIKMYRKHSHKRDELRAKYAYGDEQEHRHHMQAVLLRRRERERQLAYLASTPMQCVYSSGHHMRRKNLRKRRINSWMFDSASSSEEDTSFGGCDCHSCRRHYALSRSVYQSCPYGRGQREYHHRQMASRTMHTMRRQHTFDMEMDLRPRLPENECSCCNSDRLCSNVIHIANSSTEEWVVENRSNHLTQETQEKTRKQKHQPMDARKVSHQPVCSKGHEQKPLSSKATSVSKLVLSKEKYMQMFDSESSDEDNALAKKGLLCCSDKKKGMTFPTPNAAGKITHPTSSAKKAIRKEARPNGLAQIQEEGPTATNSPIESTYLPVAHMKSVSIDGSSGTSATFESPAKKAPKRGIRETSPLNGNELQQLISTIPIADEKASSLMEKVDNCIGRESFDDRNKDFMHMENSSTKTAVEKSTKQKRVSGKKSEIPKSIITNNEILEKNSTETLSEKQVAAKAKKQSVRKTGATGKPSTSRLKKSEKTKTTSSVTSTSKLEQVREEESDVSSEVLAKPKPQCSTTASILKQGGDGASNSEDDLQIALAMSKATYKEEQQKRKKTKREPSNKQPQSPAEKSMTVFNNQSVACNSTALANDTACYRVLPKRRGVKRAAAVSTTEEKTATNSSSSPTSSLEEMGSPTGGDPDCTVVTSTTGCEPPASERQEIPATIKITKRGILLHSPSAPEGASFTLTEQGLGKIIGERWARKYLKYHIGSRSFDSRHSVYYQPTPQLAAALSAPQDAQNIGNISGSSASDDDIFEQINRYGTVYSILENNSGDK
B2: HA-dCENP-C(1264-1411) [Drosophila melanogaster] / GFP-LacI-dCENP-C [Drosophila melanogaster] (parent)
chain 1: B1 chain 1
chain 2: MSKPQNNDTLELDDILSQPVKDKERFAAFMMRKLAENKPAQNDNLFGNFKLDFDLDFEVPLIKKSQAKPKSKLPEVQPLGELVSKNSAATEKVNEPPVDQAPNENVPPRRSPTLSPNNRRSMRRSGNVPGSDKLRRHAIRRRSRSCGRQLLPEFEETVNLTRSISSPVNFLPEISSTPCTEKQKEEVAKNTTRVETDKPAEKPMELSQEPEPENPLQTKVTSPARNPILAAEIEQICKERQSSFHKNVLQLDYSGRAPYSRPPTPSSPSVAGLRRTYTMEKGPAPGQLLLSPSHRYDTPSKMPVVKAKRFNQELMVPDTPERQSHDPAWQSEPQPEFVVPETQPQDLGELVQTLSRSAISPIVVINTSNSNRSVRRDAVAMKSVPTSPVTALSSPPIAPSPRRSAAASPQKSIAQLPRVEENMDAIMTDDESDEHPSTVPLNLAPSGGNTTRQRRLRSSNRARATIESQESSMRLLNLHKSVNAKKSKPRKTAIPLNKAPSAPINGEQFARELTRMSNYEILDLRKRNSLNEIYPLNGHRNHRSEKLILEEEIQRELLRRNLMDEAEGLPKQQSSDDSNEDYIPVPPKTQSLRTKSNDRSQGRGRPRSTRRDLPMTTELVNYLGLSQTLETRRKSSKDGKRCLYTKGSSDHEDNDSLSPVKLPRLSKSIQIVPPPPVSLRYSQSLQNLPCSGKFDFDNVVMAAPPDFHDSVNSDAIEIAPPPPEYVVNTRGRSTSGRKSNKNDLVLPPPGYEGGQEEEHDERPSQPRCTAKELQQSTQNGRRAMENELVPPPIEYVEEENRNNEQSRRSTKNGNLVDRNTHNAVEYCEPPEPPEYDDSDHGQASILRRSGKKLQHSKQSVQKSNKEQIIAPSYENNEDYDSDEEPIYNEEYGKEESQNKNVTRRKSDKDEMASHTLECIEGPDPNWNSSCNKQNRNHQNASKSKENDKLANRSSKSQKLSNPRQNAVGTEKSVALSNRGEECTEKSSDVMESLRVNTPTPPIDQNSDDVPSRNPSPSRTLLSDDVPSTSRAALEFLQRSQNMSKSRPPDESSADVVFKKPLAPAPRAKSKKGKSEVDKLKLAKMPVEAEELNTTGIRRSKRGQVPLQMSWCHTMDPSKFNFMSGFIEPRSKNSKTKKGNLSKAKKASATKPKPTVEKNLPDNRGPLCSSTPRISEKLPGAIPHSESLGLSTLTWEETEVQAEAEKVPKKRGRPKKAVGGVQTDTEAEPEPEPEPMISSVAPLTSDQEEPDVPDEQAPYTEAALGPVVFSTPLRDEQEEASTKLMQWLRGVGDAPPSASMSDENASVSSANELIFCQVDGIDYAFYNTKEKAMLGYMRFKPYQKRSMKQAKVHPLKLLVQFGEFNVETLAVGEEKEVHSVLRVGDMIEIDRGTRYSIQNAIDKVSVLMCIRS

Variants of: B1
Experiment: LacO-tethering recruitment assay (HA immunofluorescence intensity at LacO)
Conditions: with CAL1-GFP-LacI [Drosophila melanogaster]; parent: 0.68; read off a plot

Q: Which response (normalized to GFP) does the source give for chain 1 GPVVFSTPLRDEQEEASTKLMQWLRGVGDAPPSASMSDENASVSSANELIFCQVDGIDYAFYNTKEKAMLGYMRFKPYQKRSMKQAKVHPLKLEVQFGEFNVETLAVGEEKEVHSVLRVGDMIEIDRGTRYSIQNAIDKVSVEMCIRS [chain 1 L94E L143E] here?
A: 0.12

Variants of: B2
Experiment: as above
Conditions: with GFP-LacI-dCENP-C [Drosophila melanogaster]; parent: 1.6; read off a plot

Q: For chain 1 GPVVFSTPLRDEQEEASTKLMQWLRGVGDAPPSASMSDENASVSSANELIFCQVDGIDYAFYNTKEKAMLGYMRFKPYQKRSMKQAKVHPLKLEVQFGEFNVETLAVGEEKEVHSVLRVGDMIEIDRGTRYSIQNAIDKVSVEMCIRS [chain 1 L94E L143E], which response (normalized to GFP) is on record?
A: -0.05

Source: publication PMC6900781
